The values below come from US20150351390A1, “COMPOSITIONS AND METHODS FOR AUXIN-ANALOG CONJUGATION” (PIONEER HI-BRED INTERNATIONAL, INC., priority 2012, published 2015).

The labels stand for the following.
B1: Br031718: GH3 protein, Bra031718 (protein, listed as Brassica rapa)
chain: MSLGCDLSVLEELTSNAKQIQDDVLTKILKANTNTEYLSRFLEGSSEKELFKKNVPVVSYEDVKPYIDRVANGEPSDILSGKPITAFFRSTGTSSGEKKIFPANDNFEDILLGLALSSLVMSKHVDGYKQGKVMIFKFIQPISTTPCGLPLAPSITIIMKSKCYRSPGKRSTTPDEIIMCTDPKQSMYCQLLCGLVQRDEVVSVGALFASVLVQIIRFLEKYWKELCSNIRSGHVSDWITDHCCRDSVSTILGEPNPELADLIENECGQESWQGIVSRLWPKTKCVETIVTGIMAQYIPALEFYSDKLPIVSSIYGSSETFFGLNVNPLCKPQHVSYTFLPNMSYFEFIHVDADGEATGEIVDLVDVKSGGYYEPLVTNYSGLYRCRVGDVLHVTGFYNNAPQFRFVRRKNTVLSIFVESTTEEDVLKALDRATVVLESSDLMLTGFTCFGDVSTVPGHYVFYLELKAKVNNDTNVLLLDEKVLVEYCCVMEESLSSFYRSLRRKDGPIGPLEVRVVQQGTFDSLMEFFVSRGASITQYKTPICINSVEASRVLEDKVLARFFSDKSPTI
B2: Sm93250: GH3 protein, Selmo1|93250 (protein, listed as Selaginella moellendorffii)
chain: MDPALFRDDIESKTKDAAAVQANLLSQMMELNGETEYLRRYGGRFDSLPIIEYHDVADEVQRIANGDTSPILTAEPVVRFFKSSGTVTGEPKLIPATSKSLELLFRRPVYMMESDVCLGFLFAKPENKSPGGLPVSTTSSMFFKVQGENLEKMFTSPMKLLLAPDINQSLYCQLLCGLIRSEDVTQVFAALAITLVEALRLLEEAWSELADDVQTGTLNSKITDPTLRSSLSLCLRPNLKLAQSIRKECTADNAWCGIVERLWPKTKVIVTITTGGMAPYAPAVRKYGGSVPIVSGDYVCTECVLGFNLDPFCPPESVSFTIHPEYAYYEFLHYPQKLTDGSTVKLVDVKVGEEYELVVSTWSGLYRYKVGDIVRVTGFHNFSPNISFVHRLNAELDIAGERSTEAELQVAVQKSQHCLPASQELVDFTCHQDGQRYLIFWEIKNGDSLNPMILETCCCVLDTSLTERYKQRRENGLIGPLRLCIVRGKTFKALQQYSLEKGINPTQYKTPRCITSPEMIAILQAGITQDCQTPA
B3: Sm85812: GH3 protein, Selmo1|85812 (protein, listed as Selaginella moellendorffii)
chain: MHSICLKSMEHATKNAAVIQRELLQQILEKNAGTEYLTRHGLDEESNLVDGFHKLPLVEYNDIEADIKRIADGDTGRILCSDPISQFFISSGTTTGRSKLIPVTKEANSRFFRPPLISPAWHRVFTINPDETYLAFWFASKQSLTKGGFKAETVTTSGLNSAHFKRAAASFVTPHKIFQSTSMYQCLYCHLLCGLLRREEVTVVISAFAFALTEAFRVLEQVWSELLEDIEAGSLSSRITDPILRLAMSGIAPPSPELAEQLRREFRSFSMDGIVQRLWPNAKSVVAVTTGAMAPYAPRLRALAGKTPLVCGNYFSSECLIGINLSPASSPATFTVNPEFAYFEFLSYHDGETKLNGLEEQRPVGLTEVTIGEKYEIVVTTRSGLYRYRLGDVVQVAGFFNSSPSLRFLFRRNVVMSVATDKTDEFELQAVVHKASLLLRSSSQLHDFAGYADFSSIPGHYAIFWELNHGGSMDPSTLQDCCELLDVSLNDPYLRGRSSGAIGPLKLCVVRGGSFRELFEQHVARGGSGSQYKSCRCVASKQAIDLLRRNTLQQALSSKFPNPWKLSIKSLELDQ
B4: Sm87623: GH3 protein, Selmo1|87623 (protein, listed as Selaginella moellendorffii)
chain: MDATAILSAIACDEQALGFMEHVTRHVSSVQDYVLQLLLEANAGTDYFQRHGLYGIPTKEEFRRLLPITTYSDMEADFQRLANGDESKTICAARVLEMLTSSGTSGGKQKLFPKSPSYDQEFVALNRVARAALNKKAPYASRGKSLQFFYVRKPGITSGGVTTTSGLSGYFTSPAFRQRKLDPESGYTSPDQVILCVDYQQASYCHLLCGLTQSQEVVSIGAPFASTLVRSLKALKDLWQELCVDIETGRVNDNIVSDLSVKHAVNALLKPDPKLAALVRRECSKSNWRGIVRRLWPRARIIQAIVTGSMQQYVPAIDFFSDGLPIASSIYAASECSTLGVNLSPVCSPYDVRYSPFPCFVYYEFLPVSSSSSSSPRRDDLVQLAEVELGREYELVITTRAGLYRYRVGDVLKVVGFKNSMPQFSFVGRAGVLLSVDTDKTDEVELHTAVTTAAAVMAKRNRGDVRLLDYTSRVNLSSQPGHYVVYWELSLDAAMESLEAELRECCSVMEESLSVVYRRNRREGSVGALEIKVVEPGTFDRIVDHVVFVGQGSIGQYKTPRCARDPAVLRILESSVVESSRAR
B5: Br029173: GH3 protein, Bra029173 (protein, listed as Brassica rapa)
chain: MSMWADLSDKLDEKVLEDLTSNVKQMQDDVLKEILTLNANTEYLRPFLHGSSDKELFKKNVPVTTYDDVKLFIDRVANGEPFDVISGKPVTGFSLSSGTSGGKRKMFPCNKKYLENLNFIYCYRSLVISKHFDGLEHGKGMVFNFCVPEQTTPSGLPVSAATTLFFKSDYFKNRPSYWHWSFTSPDEVILCLDNKQSLYCHLLCGIVLRDEVVKVGTAFVSTLLRVITFLEKHWKEICTNIRYGHLSEWITDISCRDSVSKILGEPNPELADLIENECNQKSWEGIIQRLWPKTKFIESIATGQMAQHIPTLEFYSNKLPLISSSYVSSETMFGININPLCKPQDVSYTFMPHFSYFEFLLVDAGDEVEIVDLVDVKLGCHYETLVTNHSGLHRYKMGDIVQVTGFYNNAPQFRFARRGNLVLSVHMEITTDQALLNAVTHAKMVLESSNLMLMDFTGYADISTTPGHYVLYWELKGKYSNDIAKIDDKVLVECCYVVEESLDNFYKEYRKNGSIGALEIRVVQQGTFDSLMEFFISQGASSTQYKTPICIKSTEAIAILERKVRARFFTDKSLSLKFSS
B6: Br008836: GH3 protein, Bra008836 (protein, listed as Brassica rapa)
chain: MKPISNNDETWDATLKDLTSNVKEIQDNVLEEIITPNLKTEYLQRFNMDRFDKKLFKKNVPVVSYEDIKPDIDRVVNGESSDVISARPITGFLLSSGTSGGAQKMMPWNNKYLDNLTFAYDLRMHVITKHVKGLEEGKGMMFLFTKQETKTPSGLLARVATSSYFKSDYFTNRPSNWYYSYTSPDEVILCSNNTQSLYCHLLCGLLQRDEVVRMGSIFASVMVRAIKFLETYWEELCSNIRSGRLSEWITDLGCRSSVSLVLGGPRPDLADTIETICNQSSWKGIVTRIWPNTKYIETVVTGSMGQYVPTLNYYCSDLPLVSTTYGSSETTFGINVDPLCKPEDVSYAFMPNMSYFEFITMDGEKRDVVDLHDVKIGCTYEPVVTNFAGLYRMRVGDVLLVTGFYNNAPQFRFVRRENVVLSIDSDKTNEEDLFKAVSQAKLVLDSSDLFLEDFTSYADTSTFPGHYVIYVEVKAKGGNNHLELNEEVFSKCCSVMEDSLDNVYKRCRFKDGSVGPLEIRVVDKGTFESLMDFFINQGASTGQYKTPRCIKSGKALELMEDRVVAKFFSS
B7: Br040812: GH3 protein, Bra040812 (protein, listed as Brassica rapa)
chain: MSSIVELSSLEELTLNAEQIQDDLLEKILRLNSNTEYLRRFLHGSNDKELFKKNVPLANYEDVKPYIERVANGEPSDLISGGPVTRFFRSSGTSGGKQKIFPVNDEAIEQLGYVLALRSLVMSKHFSDNGVEQGKTMEFHYTKPESTTPSGLPVAAAFTSFFKSDYFKNRPSKSQYTSPDQVILCPDNKQSLYCHLLCGLSQRDEVVRFGATFAHALVRAIDFLESNWKELCGNIRLGHVSEWITDLGCRSSVSAIIGGPNPELADLIEQECSHKSWEGIVTRLWPKAKRIECVLTGQMAQYIPILDFYCNKLPLVSTVYGSSESIFGFNVDPLCKPQDVSYTFVPNTSYFEFLPVDHEGDMTSIVDLVNVKLGCYYEPVVTTCFGLNRYLIGDILEVTGFYNNTPQFRFVRRKNMVLSVETETTTEDDILKALARATFVLESSNLMLMDFTSSADISTFPGHYVFYWELKGKEVNDVLVLDEKTLMGCCYVLEESFGSTYRLKRRTGLIGALEIRVVEQGTFNSLTDYFISRGSSRAQYKTPLCINSSEASAVLENKVLARFHSEKSPPLDL

A short description of the first assay: LC-MS assay of GH3 conjugation of IAA with Asp or Glu. It counts as biochemical. The settings on record: LC-MS; IAA with Asp. In a few lines:
(§1)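 N-His-tagged GH3 homologs expressed in E. coli C41(DE3) and Ni-NTA purified (44 to 164 μg/mL) were incubated 3 hours at 30° C. in 20 mM Tris-HCl pH 8.0, 5 mM MgCl2, 1 mM DTT with 5 mM each of auxin, ATP and Asp or Glu. Conjugates were quantified by LC-MS against standards.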
Regarding B1, the “Detected auxin conjugates: IAA-Asp” value is “No”.

On to B2, for which the “Detected auxin conjugates: IAA-Asp” value is reported as “Yes”.

As for B3, the “Detected auxin conjugates: IAA-Asp” value is on record as “Yes”.

Consider B4, for which the “Detected auxin conjugates: IAA-Asp” value is “Yes”.

In the case of B5, the “Detected auxin conjugates: IAA-Asp” value is reported as “Yes”.

As to B6, the “Detected auxin conjugates: IAA-Asp” value is listed as “Yes”.

As to B7, the “Detected auxin conjugates: IAA-Asp” value is “Yes”.

Still in this assay, the particulars now being: LC-MS; IAA with Glu.
On to B1, for which the “Detected auxin conjugates: IAA-Glu” value is listed as “No”.

On to B2, for which the “Detected auxin conjugates: IAA-Glu” value is reported as “No”.

As to B3, the “Detected auxin conjugates: IAA-Glu” value is listed as “No”.

For B4, the “Detected auxin conjugates: IAA-Glu” value is given as “No”.

For B5, the “Detected auxin conjugates: IAA-Glu” value was “Yes”.

B6: the “Detected auxin conjugates: IAA-Glu” value is given as “Yes”.

Consider B7, for which the “Detected auxin conjugates: IAA-Glu” value is “Yes”.

The nature of another assay: LC-MS assay of GH3 conjugation of 2,4-D with Asp or Glu. It counts as biochemical. Particulars: LC-MS; 2,4-D with Asp. Put shortly:
as §1
For the molecule B1, the “Detected auxin conjugates: 2,4-D-Asp” value is given as “No”.

With B2, the “Detected auxin conjugates: 2,4-D-Asp” value is listed as “No”.

For B3, the “Detected auxin conjugates: 2,4-D-Asp” value is “No”.

B4: the “Detected auxin conjugates: 2,4-D-Asp” value is “Yes”.

With B5, the “Detected auxin conjugates: 2,4-D-Asp” value is “Yes”.

As to B6, the “Detected auxin conjugates: 2,4-D-Asp” value was “Yes”.

Regarding B7, the “Detected auxin conjugates: 2,4-D-Asp” value was “Yes”.

Still in this assay, the particulars now being: LC-MS; 2,4-D with Glu.
As for B1, the “Detected auxin conjugates: 2,4-D-Glu” value is “No”.

Turning to B2, the “Detected auxin conjugates: 2,4-D-Glu” value is “No”.

With B3, the “Detected auxin conjugates: 2,4-D-Glu” value was “No”.

Turning to B4, the “Detected auxin conjugates: 2,4-D-Glu” value is reported as “No”.

Consider B5, for which the “Detected auxin conjugates: 2,4-D-Glu” value was “Yes”.

On to B6, for which the “Detected auxin conjugates: 2,4-D-Glu” value was “Yes”.

As for B7, the “Detected auxin conjugates: 2,4-D-Glu” value is reported as “Yes”.

A short description of the next assay: LC-MS assay of GH3 conjugation of dicamba with Asp or Glu. It counts as biochemical. Particulars: LC-MS; dicamba with Asp. In a few lines: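 Dicamba–amino acid (Asp or Glu) conjugates formed by purified his-tagged GH3 enzymes were detected by LC-MS on an AB Sciex 4000 QTrap with Shimadzu Nexera UHPLC and a Phenomenex Luna 3 μm Phenyl-Hexyl column, after 20× dilution of the supernatant in water. Standards were used to quantify conjugates. Protein concentration was determined by Bradford assay.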
B1: the “Detected auxin conjugates: Dicamba-Asp” value is “No”.

Turning to B2, the “Detected auxin conjugates: Dicamba-Asp” value was “No”.

On to B3, for which the “Detected auxin conjugates: Dicamba-Asp” value is on record as “No”.

As for B4, the “Detected auxin conjugates: Dicamba-Asp” value is listed as “No”.

With B5, the “Detected auxin conjugates: Dicamba-Asp” value is “No”.

In the case of B6, the “Detected auxin conjugates: Dicamba-Asp” value is given as “No”.

On to B7, for which the “Detected auxin conjugates: Dicamba-Asp” value is recorded as “No”.

Still in this assay, the particulars now being: LC-MS; dicamba with Glu.
B1: the “Detected auxin conjugates: Dicamba-Glu” value was “No”.

Consider B2, for which the “Detected auxin conjugates: Dicamba-Glu” value is given as “No”.

B3: the “Detected auxin conjugates: Dicamba-Glu” value is “No”.

B4: the “Detected auxin conjugates: Dicamba-Glu” value is reported as “No”.

On to B5, for which the “Detected auxin conjugates: Dicamba-Glu” value was “No”.

Turning to B6, the “Detected auxin conjugates: Dicamba-Glu” value is reported as “No”.

As to B7, the “Detected auxin conjugates: Dicamba-Glu” value is on record as “No”.
